From paper PMC4385932, “A transgenic mouse model to inducibly target prosurvival Bcl2 proteins with selective BH3 peptides in vivo” (Cell Death & Disease, 2015)

Biological target: T1, Bcl-xL (UniProt Q07817-1 1-233)
T1 construct: Bcl-xL, prosurvival Bcl-2 family protein
Test: SPR; no format or conditions told

T1 sequence (Q07817 whole entry): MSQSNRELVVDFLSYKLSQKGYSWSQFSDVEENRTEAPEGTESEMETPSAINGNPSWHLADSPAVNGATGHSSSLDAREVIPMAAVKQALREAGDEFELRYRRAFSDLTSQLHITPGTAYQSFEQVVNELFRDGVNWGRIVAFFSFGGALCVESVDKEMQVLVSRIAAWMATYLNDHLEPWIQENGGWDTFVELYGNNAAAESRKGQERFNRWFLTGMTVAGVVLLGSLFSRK

Kd	Binder
8.5 nM	BimSBad^mut (BimSBad with the Bad BH3 residue F121 mutated to alanine) (ligand, N-terminal FLAG tag left out. Same conventional swap limits and species assumption as m1.) MAKQPSDVSSECDREGRQLQPAERPPQLRPGAPTSLQTEPQASMRQAEPANLWAAQRYGRELRRMSDEAVDSFKKGVFLNNYQAAEDHPRMVILRLLRYIVRLVWRMH
< 0.2 nM	BimSBad (BimS BH3-only protein in which the native BH3 sequence is replaced by the BH3 domain of Bad) (ligand, N-terminal FLAG tag left out. BimS = BimEL lacking 42-131. Swap limits are only in Figure 1a; the conventional 26-mer exchange is used (Bim 141-166, which is BimS 51-76, replaced by Bad 103-128). The) MAKQPSDVSSECDREGRQLQPAERPPQLRPGAPTSLQTEPQASMRQAEPANLWAAQRYGRELRRMSDEFVDSFKKGVFLNNYQAAEDHPRMVILRLLRYIVRLVWRMH
